T1: hIL-1α (Homo sapiens, UniProt P01583)
T1 sequence (P01583 113-271): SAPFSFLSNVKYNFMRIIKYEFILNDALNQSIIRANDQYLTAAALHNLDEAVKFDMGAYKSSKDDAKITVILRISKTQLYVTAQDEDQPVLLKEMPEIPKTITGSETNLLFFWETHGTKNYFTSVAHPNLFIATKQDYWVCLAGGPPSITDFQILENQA

B1: 13F5.G5-Ch: murine-human chimeric form of 13F5.G5 (anti-hIL-1β) with human constant region (antibody, V domains shown)
VH: QVQLQQSGAELVRPGSSVKISCKASGYAFSSYWMNWVKQRPGQGLEWIGQIYPGDGDTNYNGKFKGKATLTADKSSSTSYMQLSGLTSEDSAMYFCVRFPTGNDYYAMDYWGQGTSVTVSS
VL: NIVLTQSPASLAVSLGQRATISCRASESVDSYGNSYMHWYQQKPGQPPKLLIYLASNLESGVPARFSGSGSRTDFTLTIDPVEADDAATYYCQQNNEDPFTFGSGTKLEIKR
B2: 13F5.G5: murine monoclonal antibody to human IL-1β; VH SEQ ID NO: 95, VL SEQ ID NO: 96 (antibody, listed as Mus musculus, V domains shown)
VH: B1 VH
VL: B1 VL
B3: 3D12.E3-Ch: murine-human chimeric form of 3D12.E3 (anti-hIL-1α) with human constant region (antibody, V domains shown)
VH: QIQLVQSGPELKKPGETVKISCKASGYTFRNYGMNWVKQAPGKDLKRMAWINTYTGESTYADDFKGRFAFSLETSASTAYLQINNLKNEDTATYFCARGIYYYGSSYAMDYWGQGTSVTVSS
VL: NIQMTQTTSSLSASLGDRVTISCRASQDISNCLNWYQQKPDGTVKLLIYYTSRLHSGVPSRFSGSGSGTDYSLTISNLEQEDIATYFCQQGKTLPYAFGGGTKLEINR
B4: 3D12.E3: murine monoclonal antibody to human IL-1α; VH SEQ ID NO: 89, VL SEQ ID NO: 90 (antibody, listed as Mus musculus, V domains shown)
VH: B3 VH
VL: B3 VL

How the values were obtained:
hIL-1β = hIL-1β (Homo sapiens, UniProt P01584); test: Surface plasmon resonance (Biacore) binding kinetics and affinity to hIL-1β; details: antigen hIL-1β
Protocol: (§1) The kinetics of DVD-Ig molecules binding to rhIL1-α and rhIL1-β was determined by surface plasmon resonance-based measurements with a Biacore 3000 instrument (Biacore AB, Uppsala, Sweden) using HBS-EP (10 mM HEPES, pH 7.4, 150 mM NaCl, 3 mM EDTA, and 0.005% surfactant P20) at 25° C. All chemicals were obtained from Biacore AB (Uppsala, Sweden) or otherwise from a different source as described herein. Approximately, 5000 RU of goat anti-human IgG Fcγ fragment specific polyclonal antibody (Pierce Biotechnology Inc, Rockford, Ill.) diluted in 10 mM sodium acetate (pH 4.5) was directly immobilized across a CM5 research grade biosensor chip using a standard amine coupling kit according to manufacturer's instructions and procedures at […]. Unreacted moieties on the biosensor surface were blocked with ethanolamine. Modified carboxymethyl dextran surface in flowcell 2 and 4 was used as a reaction surface. Unmodified carboxymethyl dextran without goat anti-human IgG in flow cell 1 and 3 was used as the reference surface. For kinetic analysis, rate equations derived from the 1:1 Langmuir binding model were fitted simultaneously to association and dissociation phases of all ten injections (using global fit analysis) using the Bioevaluation 4.0.1 software. Purified DVD-Ig samples were diluted in HEPES-buffered saline for capture across goat anti-human IgG Fc specific reaction surfaces and injected over reaction matrices at a flow rate of […]. The association and dissociation rate constants, kon (M-1s-1) and koff (s-1) were determined under a continuous flow rate of […]. Rate constants were derived by making kinetic binding measurements at ten different antigen concentrations ranging from 1.25 to 1000 nM. The equilibrium dissociation constant (M) of the reaction between DVD-Ig molecule and rhIL1α/β was then calculated from the kinetic rate constants by the following formula: KD=koff/kon. Aliquots of rhIL1α/β samples were also simultaneously injected over a blank reference and reaction CM surface to record and subtract any nonspecific binding background to eliminate the majority of the refractive index change and injection noise. Surfaces were regenerated with two subsequent […] injections of 10 mM Glycine (pH 1.5) at a flow rate of […]. The anti-Fc antibody immobilized surfaces were completely regenerated and retained their full capture capacity over twelve cycles. The apparent stoichiometry of the captured DVD-Ig-rhIL1α/β complex was calculated under saturating binding conditions (steady-state equilibrium) using the following formula: […]

[1] = Size exclusion chromatography (SEC): physical homogeneity and in vitro stability; assay type: physicochemical; details: 0.2-0.4 mg/ml in PBS, SEC
Protocol: For measuring molecular weight (MW) of light and heavy chains of DVD-Ig binding protein, 10 μL of DVD-Ig molecule (0.8 μg/μL) was reduced by 1.0 M DTT solution (5 μL). A PLRP-S, 8μ, 4000 A, and 1×150 mm protein column (Michrom BioResource, Auburn, Mass.) was used to separate heavy and light chains of DVD-Ig molecule. Agilent HP1100 Capillary HPLC (Agilent Technologies Inc., Pala Alto, Calif.) was used with the mass spectrometer QSTAR (Applied Biosystems, Foster City, Calif.). The valco valve was set at 10 minutes to switch the flow from waste to MS for desalting sample. Buffer A was 0.02% TFA, 0.08% FA, 0.1% ACN and 99.8% HPLC-H2O. Buffer B contained 0.02% TFA, 0.08% FA, 0.1% HPLC-H2O, and 99.8% ACN. The HPLC flow rate was 50 μL/minute and the sample injection volume was […]. The temperature of the column oven was set at 60° C., and separation gradient was: 5% B for 5 minutes; 5% B to 65% B for 35 minutes; 65% B to 95% B for another 5 minutes, and 95% B to 5% B for 5 minutes. TOFMS scan was from 800 to 2500 amu, and cycles were 3600. To determine the MW of full length DVD-Ig binding protein, a Protein MicroTrap cartridge (Michrom BioResource, Auburn, Mass.) was used for desalting the sample. The HPLC gradient was: 5% B for 5 minutes; 5% B to 95% B in 1 minute; and from 95% B to 5% B in another 4 minutes. The QSTAR TOFMS scan was from 2000 to 3500 amu, and cycles were 899. All MS raw data were analyzed using the Analyst QS software (Applied Biosystems). For SEC analysis of the DVD-Ig binding protein, purified DVD-Ig binding protein and chimeric Abs, in PBS, were applied on a Superose 6 10/300 G2, 300×10 mm column (Amersham Bioscience, Piscataway, N.J.). An HPLC instrument, Model 10A (Shimadzu, Columbia, Md.) was used for SEC. All proteins were determined using UV detection at 280 nm and 214 nm. The elution was isocratic at a flow rate of 0.5 mL/minute. For stability study, samples in the concentration range of 0.2-0.4 mg/ml in PBS underwent 3 freeze-thaw cycles between −80° C. and 25° C., or were incubated at 4° C., 25° C., or 40° C., for 4 weeks and 8 weeks, followed by SEC analysis.
In order to determine the precise molecular weight of the DVD-Ig binding proteins, mass spectrometry was employed. […] To further study the physical properties of DVD-Ig binding protein in solution, size exclusion chromatography (SEC) was used to analyze each protein.
The physical stability of DVD-Ig was tested as follows. Purified antibodies in the concentration range of 0.2-0.4 mg/ml in PBS underwent 3 freeze-thaw cycles between −80° C. and 25° C., or were incubated at 4° C., 25° C., or 40° C., for 4 weeks and 8 weeks, followed by analysis using size exclusion chromatography (SEC) analysis (see Table 12).

hIL-1α = biological target: T1, hIL-1α; test: Surface plasmon resonance (Biacore) binding kinetics and affinity to hIL-1α; details: antigen hIL-1α
Protocol: as §1

[2] = 3xFreeze-Thaw between −80° C. and 25° C.

Chain of hIL-1β (P01584 117-269): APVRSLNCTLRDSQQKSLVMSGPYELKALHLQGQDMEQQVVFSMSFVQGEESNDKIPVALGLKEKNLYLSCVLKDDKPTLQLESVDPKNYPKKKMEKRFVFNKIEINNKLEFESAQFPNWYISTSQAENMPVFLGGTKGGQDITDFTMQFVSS

koff (hIL-1β) [s⁻¹] | kon (hIL-1β) [M⁻¹ s⁻¹] | Molecule | Ab (intact antibody) [1, 2] [percentage] | Agg (aggregates) [1, 2] [percentage] | Frgm (fragments) [1, 2] [percentage] | Ab (intact antibody) ([1]; 4° C. @ 4 Wks) [percentage] | Agg (aggregates) ([1]; 4° C. @ 4 Wks) [percentage] | Frgm (fragments) ([1]; 4° C. @ 4 Wks) [percentage] | Ab (intact antibody) ([1]; 4° C. @ 8 Wks) [percentage] | Agg (aggregates) ([1]; 4° C. @ 8 Wks) [percentage] | Frgm (fragments) ([1]; 4° C. @ 8 Wks) [percentage] | Ab (intact antibody) ([1]; 25° C. @ 4 Wks) [percentage] | Agg (aggregates) ([1]; 25° C. @ 4 Wks) [percentage] | Frgm (fragments) ([1]; 25° C. @ 4 Wks) [percentage] | Ab (intact antibody) ([1]; 25° C. @ 8 Wks) [percentage] | Frgm (fragments) ([1]; 25° C. @ 8 Wks) [percentage] | Ab (intact antibody) ([1]; 40° C. @ 4 Wks) [percentage] | Agg (aggregates) ([1]; 40° C. @ 4 Wks) [percentage] | Frgm (fragments) ([1]; 40° C. @ 4 Wks) [percentage] | Ab (intact antibody) ([1]; 40° C. @ 8 Wks) [percentage] | other results
0.000654 | 1.41e+06 | B1 | 87.0 | 13.0 | 0.0 | 95.8 | 4.2 | 0.0 | 97.8 | 2.2 | 0.0 | 100.0 | 0.0 | 0.0 | 97.5 | 1.0 | 78.1 | 20.3 | 1.6 | 65.4 | Agg (aggregates) ([1]; 25° C. @ 8 Wks): 1.4 percentage; Agg (aggregates) ([1]; 40° C. @ 8 Wks): 34.6 percentage; Frgm (fragments) ([1]; 40° C. @ 8 Wks): 0.0 percentage
0.000621 | 2.13e+06 | B2 |  |  |  |  |  |  |  |  |  |  |  |  |  |  |  |  |  |  | 
 |  | B3 | 98.28 | 1.72 | 0.00 | 99.15 | 0.85 | 0.00 | 90.33 | 5.35 | 4.32 | 98.71 | 1.29 | 0.00 | 60.55 | 38.34 | 98.35 | 1.65 | 0.00 | 81.47 | koff (hIL-1α): 0.000552 s⁻¹; kon (hIL-1α): 412000 M⁻¹ s⁻¹; Agg (aggregates) ([1]; 40° C. @ 8 Wks): 4.74 percentage; Frgm (fragments) ([1]; 40° C. @ 8 Wks): 13.79 percentage
 |  | B4 |  |  |  |  |  |  |  |  |  |  |  |  |  |  |  |  |  |  | koff (hIL-1α): 0.000713 s⁻¹; kon (hIL-1α): 643000 M⁻¹ s⁻¹

— patent US8889130B2, “Treatment of osteoarthritis and pain” (Abbvie Inc., priority 2011, dated 2014)
